# IntAct's records for PubMed 12628189
# B1: Protein TEM1 (Saccharomyces cerevisiae), P38987 (parent)
# chain: MATPSTGANNSIPAVRNQVEVQVGLVGDAQVGKTSLMVKYVQNIYDKEYTQTLGVNFLKRKVSIRSTDIIFSIMDLGGQREFINMLPIATVGSSVIIFLFDLTRPETLSSIKEWYRQAYGLNDSAIPILVGTKYDLLIDLDPEYQEQISRTSMKYAQVMNAPLIFCSTAKSINIQKIFKIALAKIFNLTLTIPEINEIGDPLLIYKHLGGQQHRHHNKSQDRKSHNIRKPSSSPSSKAPSPGVNT
# partner: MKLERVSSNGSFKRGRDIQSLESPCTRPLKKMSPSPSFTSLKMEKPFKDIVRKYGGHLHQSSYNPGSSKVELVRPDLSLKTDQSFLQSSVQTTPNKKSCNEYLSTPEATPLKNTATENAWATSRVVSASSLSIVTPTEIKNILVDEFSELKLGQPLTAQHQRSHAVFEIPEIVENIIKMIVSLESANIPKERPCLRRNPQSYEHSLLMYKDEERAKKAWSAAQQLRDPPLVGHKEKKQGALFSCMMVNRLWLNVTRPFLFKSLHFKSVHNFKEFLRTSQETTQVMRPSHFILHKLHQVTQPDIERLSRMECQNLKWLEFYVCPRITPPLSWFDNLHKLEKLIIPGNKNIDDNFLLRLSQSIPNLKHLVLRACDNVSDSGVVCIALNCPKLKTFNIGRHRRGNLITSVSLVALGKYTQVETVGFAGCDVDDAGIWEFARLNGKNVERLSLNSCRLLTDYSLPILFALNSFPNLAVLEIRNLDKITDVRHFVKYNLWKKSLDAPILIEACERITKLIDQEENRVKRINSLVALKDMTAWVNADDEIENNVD
# B2: Protein TEM1 (Saccharomyces cerevisiae), P38987 (parent)
# chain: B1 chain
# partner: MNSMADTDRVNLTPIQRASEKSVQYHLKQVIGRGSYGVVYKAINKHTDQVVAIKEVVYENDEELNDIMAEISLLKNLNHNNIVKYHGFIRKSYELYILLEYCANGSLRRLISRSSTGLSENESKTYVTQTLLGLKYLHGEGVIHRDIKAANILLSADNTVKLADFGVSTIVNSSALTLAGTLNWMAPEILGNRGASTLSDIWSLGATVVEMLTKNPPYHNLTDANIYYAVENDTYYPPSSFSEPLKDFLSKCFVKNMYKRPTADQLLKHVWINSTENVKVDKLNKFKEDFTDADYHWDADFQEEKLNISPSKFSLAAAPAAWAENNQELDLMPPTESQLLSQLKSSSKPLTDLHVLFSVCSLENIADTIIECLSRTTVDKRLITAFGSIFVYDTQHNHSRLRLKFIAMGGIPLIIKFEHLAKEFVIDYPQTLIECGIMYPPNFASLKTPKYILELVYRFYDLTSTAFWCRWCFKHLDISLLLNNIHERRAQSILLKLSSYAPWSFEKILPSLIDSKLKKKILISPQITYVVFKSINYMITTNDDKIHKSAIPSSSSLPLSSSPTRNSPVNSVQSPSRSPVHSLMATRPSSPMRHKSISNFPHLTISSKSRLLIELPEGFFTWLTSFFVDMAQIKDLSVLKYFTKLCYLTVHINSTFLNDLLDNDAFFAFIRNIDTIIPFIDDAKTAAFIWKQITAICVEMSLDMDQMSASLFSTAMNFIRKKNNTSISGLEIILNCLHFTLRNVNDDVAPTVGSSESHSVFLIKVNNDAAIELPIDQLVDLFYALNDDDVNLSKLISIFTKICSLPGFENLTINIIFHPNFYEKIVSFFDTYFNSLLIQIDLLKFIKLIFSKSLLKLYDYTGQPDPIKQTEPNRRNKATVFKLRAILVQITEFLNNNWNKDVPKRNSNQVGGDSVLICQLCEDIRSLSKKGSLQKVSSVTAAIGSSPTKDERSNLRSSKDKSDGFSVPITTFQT
# Variants of: B1
# Conditions: with amn1_yeast AMN1, P38285
row,effect of a mutation on the interaction,Variant
1,disrupting interaction,MATPSTGANNSIPAVRNQVEVQVGLVGDAQVGKTSLMVKYVQNIYDKEYTQTLGVNFLKRKVSIRSTDIIFSIMDLGGQREFINMLPIATVGSSVIIFLFDLTRPETLSSIKEWYRQAYGLNDSAIPILVGTKYALLIDLDPEYQEQISRTSMKYAQVMNAPLIFCSTAKSINIQKIFKIALAKIFNLTLTIPEINEIGDPLLIYKHLGGQQHRHHNKSQDRKSHNIRKPSSSPSSKAPSPGVNT [D135A]
2,decreasing interaction,MATPSTGANNSIPAVRNQVEVQVGLVGDAQVGKASLMVKYVQNIYDKEYTQTLGVNFLKRKVSIRSTDIIFSIMDLGGQREFINMLPIATVGSSVIIFLFDLTRPETLSSIKEWYRQAYGLNDSAIPILVGTKYDLLIDLDPEYQEQISRTSMKYAQVMNAPLIFCSTAKSINIQKIFKIALAKIFNLTLTIPEINEIGDPLLIYKHLGGQQHRHHNKSQDRKSHNIRKPSSSPSSKAPSPGVNT [T34A]

# Variants of: B2
# Conditions: with cdc15_yeast CDC15, P27636
row,effect of a mutation on the interaction,Variant
1,disrupting interaction,MATPSTGANNSIPAVRNQVEVQVGLVGDAQVGKASLMVKYVQNIYDKEYTQTLGVNFLKRKVSIRSTDIIFSIMDLGGQREFINMLPIATVGSSVIIFLFDLTRPETLSSIKEWYRQAYGLNDSAIPILVGTKYDLLIDLDPEYQEQISRTSMKYAQVMNAPLIFCSTAKSINIQKIFKIALAKIFNLTLTIPEINEIGDPLLIYKHLGGQQHRHHNKSQDRKSHNIRKPSSSPSSKAPSPGVNT [T34A]
2,disrupting interaction,MATPSTGANNSIPAVRNQVEVQVGLVGDAQVGKTSLMVKYVQNIYDKEYTQTLGVNFLKRKVSIRSTDIIFSIMDLGGQREFINMLPIATVGSSVIIFLFDLTRPETLSSIKEWYRQAYGLNDSAIPILVGTKYALLIDLDPEYQEQISRTSMKYAQVMNAPLIFCSTAKSINIQKIFKIALAKIFNLTLTIPEINEIGDPLLIYKHLGGQQHRHHNKSQDRKSHNIRKPSSSPSSKAPSPGVNT [D135A]
